Source: the supplement of paper PMC10065799, “High-throughput profiling of sequence recognition by tyrosine kinases and SH2 domains using bacterial peptide display” (eLife, 2023)

target: c-Src SH2; assay: SH2 binding enrichment of the phosphorylated peptide, bacterial display (enrichment ratio); higher = better substrate or ligand; peptides without Tyr show the background
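Wherever SH2 binding enrichment of the phosphorylated peptide, bacterial display is given: peptide library displayed on the E. coli surface as eCPX fusions, selected cells deep-sequenced, score is each peptide's frequency after selection divided by its frequency in the input.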
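Wherever phosphorylation enrichment, bacterial display is given: 11-residue human phosphosite peptides and single-mutation variants displayed on the E. coli surface, counted by deep sequencing, each peptide's frequency after selection divided by its frequency in the unselected input library; frequency after pTyr selection over input frequency; kinase dosed for 20-30% of maximal phosphorylation in three min.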

Sequence | SH2 binding enrichment
VEDHFYEGGIG [TKT_Y564_YF] | 4.29
SVNIRYLLFPS [SERAC1_Y548] | 1.38
KLADVYQAELR [GFAP_Y116] | 0.486
ATDLAYYLVCK [ASL_Y375_R379C] | 0.59
NTVLGYFIGCI [GARS1_Y408_R412C] | 0.438
FTHSDYQFGQR [PKP2_Y166_S169G_YF] | 0.626
NGPDVYVLPVT [AATK_Y93_L97V] | 0.594
EFLKNYFTDKA [DSG2_Y775_R773K] | 0.365
VHKEGYNKLNQ [ZNF676_Y98] | 0.416
VDSNPYSRLVA [UBA5_Y53_M57V] | 1.7
VDSAHYKLLET [DTX3L_Y385] | 0.517
SEDANYMRVSC [TTC3_Y1288_K1289M] | 0.534
KVITDYFVDMK [MPP4_Y566_YF] | 0.595
AKQVGCENAGT [PC_Y304_Y304C] | 0.455
TFAVSYLPDMS [FLNC_Y1602_T1599A_YF] | 0.566
SSAETYSRMRL [NBEAL2_Y1835] | 0.691
AVAFLYFKSIG [ADGRL4_Y301_V300L_YF] | 0.569

Sequence | SH2 binding enrichment
TLQSMSGCDVG [HLA-B_Y123_Y123S] | 0.491
SVTCTYSPAPN [TP53_Y126_L130P] | 0.425
FSGIFYKPESL [L2HGDH_Y103_H98Y_YF] | 0.56
GPKSTYISSAG [GOLGA5_Y62_A67G] | 0.38
QGLRLYRSHLA [BTK_Y617_P619S] | 1.03
VISNAYVDLSP [HSD17B4_Y602_A606S] | 3.09
YLGEEYVKAVG [TF_Y674] | 0.509
QKLPSYILENN [VPS13B_Y2774] | 0.607
VFDMLYQLANL [USP24_Y1087] | 1.11
VNKIYHPDFIV [LIG3_Y768_Y768H] | 0.529
FADIAYNFRHR [PAH_Y166_G171R_YF] | 0.547
KVALVYGQMNE [ATP5F1B_Y269] | 0.57
FARNCYVAGQF [G6PD_Y107_S106C_YF] | 0.437
IFGVSYDEFRF [CFTR_Y512_YF] | 0.897
HLLRIYFDITD [MMP27_Y307_W304L_YF] | 0.536
STTSDYQWDFS [MTDH_Y364_V368F] | 0.573

target: Grb2 SH2 (UniProt P62993); assay: as above
Sequence (P62993 whole entry, looked up): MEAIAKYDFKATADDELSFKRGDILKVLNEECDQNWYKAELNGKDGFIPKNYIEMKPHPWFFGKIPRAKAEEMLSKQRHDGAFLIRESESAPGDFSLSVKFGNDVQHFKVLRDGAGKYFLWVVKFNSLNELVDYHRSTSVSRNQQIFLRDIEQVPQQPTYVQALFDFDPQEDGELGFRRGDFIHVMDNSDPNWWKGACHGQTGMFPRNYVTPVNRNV

Sequence | SH2 binding enrichment
VEDHFYEGGIG [TKT_Y564_YF] | 0.592
SVNIRYLLFPS [SERAC1_Y548] | 1.72
KLADVYQAELR [GFAP_Y116] | 0.844
ATDLAYYLVCK [ASL_Y375_R379C] | 0.803
NTVLGYFIGCI [GARS1_Y408_R412C] | 0.906
FTHSDYQFGQR [PKP2_Y166_S169G_YF] | 1
NGPDVYVLPVT [AATK_Y93_L97V] | 0.902
EFLKNYFTDKA [DSG2_Y775_R773K] | 0.764
VHKEGYNKLNQ [ZNF676_Y98] | 0.89
VDSNPYSRLVA [UBA5_Y53_M57V] | 1.38
VDSAHYKLLET [DTX3L_Y385] | 0.793
SEDANYMRVSC [TTC3_Y1288_K1289M] | 0.819
KVITDYFVDMK [MPP4_Y566_YF] | 0.757
AKQVGCENAGT [PC_Y304_Y304C] | 0.803
TFAVSYLPDMS [FLNC_Y1602_T1599A_YF] | 0.905
SSAETYSRMRL [NBEAL2_Y1835] | 0.719
AVAFLYFKSIG [ADGRL4_Y301_V300L_YF] | 0.806

Sequence | SH2 binding enrichment
TLQSMSGCDVG [HLA-B_Y123_Y123S] | 0.836
SVTCTYSPAPN [TP53_Y126_L130P] | 0.635
FSGIFYKPESL [L2HGDH_Y103_H98Y_YF] | 1.17
GPKSTYISSAG [GOLGA5_Y62_A67G] | 0.713
QGLRLYRSHLA [BTK_Y617_P619S] | 1.21
VISNAYVDLSP [HSD17B4_Y602_A606S] | 0.593
YLGEEYVKAVG [TF_Y674] | 0.795
QKLPSYILENN [VPS13B_Y2774] | 0.755
VFDMLYQLANL [USP24_Y1087] | 1.53
VNKIYHPDFIV [LIG3_Y768_Y768H] | 0.747
FADIAYNFRHR [PAH_Y166_G171R_YF] | 0.888
KVALVYGQMNE [ATP5F1B_Y269] | 0.851
FARNCYVAGQF [G6PD_Y107_S106C_YF] | 0.742
IFGVSYDEFRF [CFTR_Y512_YF] | 0.991
HLLRIYFDITD [MMP27_Y307_W304L_YF] | 0.85
STTSDYQWDFS [MTDH_Y364_V368F] | 0.821

target: SHP2-C SH2; assay: as above

Sequence | SH2 binding enrichment
VEDHFYEGGIG [TKT_Y564_YF] | 0.554
SVNIRYLLFPS [SERAC1_Y548] | 1.67
KLADVYQAELR [GFAP_Y116] | 0.561
ATDLAYYLVCK [ASL_Y375_R379C] | 0.505
NTVLGYFIGCI [GARS1_Y408_R412C] | 0.514
FTHSDYQFGQR [PKP2_Y166_S169G_YF] | 1.05
NGPDVYVLPVT [AATK_Y93_L97V] | 0.617
EFLKNYFTDKA [DSG2_Y775_R773K] | 0.882
VHKEGYNKLNQ [ZNF676_Y98] | 0.624
VDSNPYSRLVA [UBA5_Y53_M57V] | 3.46
VDSAHYKLLET [DTX3L_Y385] | 0.67
SEDANYMRVSC [TTC3_Y1288_K1289M] | 0.746
KVITDYFVDMK [MPP4_Y566_YF] | 0.717
AKQVGCENAGT [PC_Y304_Y304C] | 0.694
TFAVSYLPDMS [FLNC_Y1602_T1599A_YF] | 1.01
SSAETYSRMRL [NBEAL2_Y1835] | 0.724
AVAFLYFKSIG [ADGRL4_Y301_V300L_YF] | 1.07

Sequence | SH2 binding enrichment
TLQSMSGCDVG [HLA-B_Y123_Y123S] | 0.488
SVTCTYSPAPN [TP53_Y126_L130P] | 0.554
FSGIFYKPESL [L2HGDH_Y103_H98Y_YF] | 1.27
GPKSTYISSAG [GOLGA5_Y62_A67G] | 0.581
QGLRLYRSHLA [BTK_Y617_P619S] | 0.888
VISNAYVDLSP [HSD17B4_Y602_A606S] | 0.753
YLGEEYVKAVG [TF_Y674] | 0.788
QKLPSYILENN [VPS13B_Y2774] | 0.762
VFDMLYQLANL [USP24_Y1087] | 1.84
VNKIYHPDFIV [LIG3_Y768_Y768H] | 0.72
FADIAYNFRHR [PAH_Y166_G171R_YF] | 0.872
KVALVYGQMNE [ATP5F1B_Y269] | 0.734
FARNCYVAGQF [G6PD_Y107_S106C_YF] | 0.383
IFGVSYDEFRF [CFTR_Y512_YF] | 0.684
HLLRIYFDITD [MMP27_Y307_W304L_YF] | 0.464
STTSDYQWDFS [MTDH_Y364_V368F] | 0.637

target: Fes (UniProt P07332); assay: phosphorylation enrichment, bacterial display (enrichment ratio); higher = better substrate or ligand; peptides without Tyr show the background
Sequence (P07332 whole entry, looked up): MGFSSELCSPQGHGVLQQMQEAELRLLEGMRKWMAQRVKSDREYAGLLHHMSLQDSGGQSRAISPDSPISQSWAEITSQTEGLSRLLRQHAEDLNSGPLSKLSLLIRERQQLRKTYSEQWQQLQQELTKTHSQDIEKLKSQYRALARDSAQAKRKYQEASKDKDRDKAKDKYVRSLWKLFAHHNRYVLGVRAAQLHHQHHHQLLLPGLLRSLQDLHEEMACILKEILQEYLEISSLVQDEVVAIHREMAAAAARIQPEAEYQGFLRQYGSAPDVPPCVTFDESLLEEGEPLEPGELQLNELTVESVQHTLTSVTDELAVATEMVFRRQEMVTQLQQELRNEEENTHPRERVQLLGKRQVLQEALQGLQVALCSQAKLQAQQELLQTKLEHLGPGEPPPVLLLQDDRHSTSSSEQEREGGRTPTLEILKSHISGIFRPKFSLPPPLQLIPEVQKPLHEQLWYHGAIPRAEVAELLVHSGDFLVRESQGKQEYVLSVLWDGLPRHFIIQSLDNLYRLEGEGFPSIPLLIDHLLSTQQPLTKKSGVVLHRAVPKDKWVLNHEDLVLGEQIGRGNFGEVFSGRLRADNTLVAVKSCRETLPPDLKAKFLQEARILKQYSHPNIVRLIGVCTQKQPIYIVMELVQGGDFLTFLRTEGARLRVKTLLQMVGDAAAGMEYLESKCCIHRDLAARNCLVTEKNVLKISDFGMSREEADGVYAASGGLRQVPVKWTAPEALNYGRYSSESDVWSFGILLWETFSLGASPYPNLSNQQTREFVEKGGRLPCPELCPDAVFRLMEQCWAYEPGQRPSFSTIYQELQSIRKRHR

Sequence | phosphorylation enrichment
VEDHFYEGGIG [TKT_Y564_YF] | 1.12
SVNIRYLLFPS [SERAC1_Y548] | 1.36
KLADVYQAELR [GFAP_Y116] | 0.792
ATDLAYYLVCK [ASL_Y375_R379C] | 1.77
NTVLGYFIGCI [GARS1_Y408_R412C] | 1.31
FTHSDYQFGQR [PKP2_Y166_S169G_YF] | 0.687
NGPDVYVLPVT [AATK_Y93_L97V] | 1.05
EFLKNYFTDKA [DSG2_Y775_R773K] | 0.827
VHKEGYNKLNQ [ZNF676_Y98] | 0.539
VDSNPYSRLVA [UBA5_Y53_M57V] | 0.64
VDSAHYKLLET [DTX3L_Y385] | 0.722
SEDANYMRVSC [TTC3_Y1288_K1289M] | 0.958
KVITDYFVDMK [MPP4_Y566_YF] | 1.36
AKQVGCENAGT [PC_Y304_Y304C] | 0.83
TFAVSYLPDMS [FLNC_Y1602_T1599A_YF] | 1.21
SSAETYSRMRL [NBEAL2_Y1835] | 0.577
AVAFLYFKSIG [ADGRL4_Y301_V300L_YF] | 1.62

Sequence | phosphorylation enrichment
TLQSMSGCDVG [HLA-B_Y123_Y123S] | 0.791
SVTCTYSPAPN [TP53_Y126_L130P] | 1.14
FSGIFYKPESL [L2HGDH_Y103_H98Y_YF] | 1.03
GPKSTYISSAG [GOLGA5_Y62_A67G] | 0.587
QGLRLYRSHLA [BTK_Y617_P619S] | 1.04
VISNAYVDLSP [HSD17B4_Y602_A606S] | 0.818
YLGEEYVKAVG [TF_Y674] | 0.823
QKLPSYILENN [VPS13B_Y2774] | 1.94
VFDMLYQLANL [USP24_Y1087] | 1.08
VNKIYHPDFIV [LIG3_Y768_Y768H] | 0.715
FADIAYNFRHR [PAH_Y166_G171R_YF] | 0.652
KVALVYGQMNE [ATP5F1B_Y269] | 1.13
FARNCYVAGQF [G6PD_Y107_S106C_YF] | 0.938
IFGVSYDEFRF [CFTR_Y512_YF] | 0.982
HLLRIYFDITD [MMP27_Y307_W304L_YF] | 2.46
STTSDYQWDFS [MTDH_Y364_V368F] | 1.1
